Tests used:
Experiment in all cases: native gel or EMSA; Blue Native PAGE, purified recombinant non-tagged proteins in 1 x PBS, 1 mM DTT, 1 mM ATP; 4-16% Bis-Tris gels, cold room, Coomassie staining
[1] = target: UBXD9^261–573, GST tag cleaved (D. discoideum)
[2] = target: UBXD9^331–573, GST tag cleaved (D. discoideum)
[3] = target: UBXD9^384–573, GST tag cleaved (D. discoideum)

For “UBXD9^261–573, GST tag cleaved (domain or fragment)”, the stoichiometry N [1] was 6.
In the case of “UBXD9^331–573, GST tag cleaved (domain or fragment)”, the stoichiometry N [2] was 6.
Substance “UBXD9^384–573, GST tag cleaved (domain or fragment)” has a stoichiometry N [3] of 6.
